# Measurements from article PMC3608554.
# Biological target: PLCg2 (UniProt P16885)
# Experiment: anti-PLCg2 IP, anti-BANK1 blot
# Conditions: reference: wild type; sites Y484,Y488
substance,measurement,value
BANK1 (from UniProt Q8NDB2) Y484F/Y488F,binding against the reference,weaker
